First the molecules themselves.
B1: AP-2 complex subunit mu (Rattus norvegicus (Rat)), P84092 (parent)
chain: MIGGLFIYNHKGEVLISRVYRDDIGRNAVDAFRVNVIHARQQVRSPVTNIARTSFFHVKRSNIWLAAVTKQNVNAAMVFEFLYKMCDVMAAYFGKISEENIKNNFVLIYELLDEILDFGYPQNSETGALKTFITQQGIKSQHQTKEEQSQITSQVTGQIGWRREGIKYRRNELFLDVLESVNLLMSPQGQVLSAHVSGRVVMKSYLSGMPECKFGMNDKIVIEKQGKGTADETSKSGKQSIAIDDCTFHQCVRLSKFDSERSISFIPPDGEFELMRYRTTKDIILPFRVIPLVREVGRTKLEVKVVIKSNFKPSLLAQKIEVRIPTPLNTSGVQVICMKGKAKYKASENAIVWKIKRMAGMKESQISAEIELLPTNDKKKWARPPISMNFEVPFAPSGLKVRYLKVFEPKLNYSDHDVIKWVRYIGRSGIYETRC
partner: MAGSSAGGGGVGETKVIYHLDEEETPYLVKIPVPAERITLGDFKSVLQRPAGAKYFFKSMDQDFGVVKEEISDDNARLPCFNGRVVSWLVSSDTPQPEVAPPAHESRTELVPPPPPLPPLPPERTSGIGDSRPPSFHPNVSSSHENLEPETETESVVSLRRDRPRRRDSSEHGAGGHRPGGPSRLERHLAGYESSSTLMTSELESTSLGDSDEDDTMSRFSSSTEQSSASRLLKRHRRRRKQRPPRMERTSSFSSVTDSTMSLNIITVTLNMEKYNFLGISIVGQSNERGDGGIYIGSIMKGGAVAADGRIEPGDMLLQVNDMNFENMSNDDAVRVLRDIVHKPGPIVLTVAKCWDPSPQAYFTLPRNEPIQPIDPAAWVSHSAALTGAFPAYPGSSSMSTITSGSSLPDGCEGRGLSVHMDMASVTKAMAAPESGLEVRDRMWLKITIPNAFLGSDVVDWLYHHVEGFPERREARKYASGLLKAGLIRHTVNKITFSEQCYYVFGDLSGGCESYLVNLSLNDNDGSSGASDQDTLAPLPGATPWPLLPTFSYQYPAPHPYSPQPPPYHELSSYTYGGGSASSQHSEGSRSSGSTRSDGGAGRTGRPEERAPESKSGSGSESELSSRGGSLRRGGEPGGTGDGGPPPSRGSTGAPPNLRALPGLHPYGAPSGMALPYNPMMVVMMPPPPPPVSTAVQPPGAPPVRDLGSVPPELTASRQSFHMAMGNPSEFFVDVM
B2: Segment polarity protein dishevelled homolog DVL-2 (Mus musculus), Q60838 (parent)
chain: B1 partner

Variants of B1 are the subject of the first assay. As to conditions: with dvl2_mouse Dvl2, Q60838.
For K213D;K405D, the “effect of a mutation on the interaction” value is on record as “decreasing interaction”.
Take E211A;K213D;K405D;F407A: the “effect of a mutation on the interaction” value was “decreasing interaction”.
The same measure, in the same setting: the value for W421A was “disrupting interaction”; that for E211A;K213D;K405D was “decreasing interaction”.

The variants in the next assay derive from B2. As to conditions: with ap2m1_rat Ap2m1, P84092.
Regarding D441K;N451A, the “effect of a mutation on the interaction” value was “decreasing interaction”.
In the case of Y561A, the “effect of a mutation on the interaction” value is listed as “disrupting interaction”.
With D441K;N451A;R489A, the “effect of a mutation on the interaction” value was “decreasing interaction”.
Consider R489A, for which the “effect of a mutation on the interaction” value is listed as “decreasing interaction”.
Regarding N451A, the “effect of a mutation on the interaction” value was “decreasing interaction”.
The same measure, in the same setting: the same measure for D441K: “decreasing interaction”; for K446A: “decreasing interaction strength”; for K446M: “decreasing interaction strength”.
As for D441K;R489A, the “effect of a mutation on the interaction” value is “decreasing interaction”.

The next assay covers variants of B2. As to conditions: with ap2b1_bovin AP2B1, P63009.
ap2b1_bovin AP2B1, P63009, sequence (P63009 whole entry): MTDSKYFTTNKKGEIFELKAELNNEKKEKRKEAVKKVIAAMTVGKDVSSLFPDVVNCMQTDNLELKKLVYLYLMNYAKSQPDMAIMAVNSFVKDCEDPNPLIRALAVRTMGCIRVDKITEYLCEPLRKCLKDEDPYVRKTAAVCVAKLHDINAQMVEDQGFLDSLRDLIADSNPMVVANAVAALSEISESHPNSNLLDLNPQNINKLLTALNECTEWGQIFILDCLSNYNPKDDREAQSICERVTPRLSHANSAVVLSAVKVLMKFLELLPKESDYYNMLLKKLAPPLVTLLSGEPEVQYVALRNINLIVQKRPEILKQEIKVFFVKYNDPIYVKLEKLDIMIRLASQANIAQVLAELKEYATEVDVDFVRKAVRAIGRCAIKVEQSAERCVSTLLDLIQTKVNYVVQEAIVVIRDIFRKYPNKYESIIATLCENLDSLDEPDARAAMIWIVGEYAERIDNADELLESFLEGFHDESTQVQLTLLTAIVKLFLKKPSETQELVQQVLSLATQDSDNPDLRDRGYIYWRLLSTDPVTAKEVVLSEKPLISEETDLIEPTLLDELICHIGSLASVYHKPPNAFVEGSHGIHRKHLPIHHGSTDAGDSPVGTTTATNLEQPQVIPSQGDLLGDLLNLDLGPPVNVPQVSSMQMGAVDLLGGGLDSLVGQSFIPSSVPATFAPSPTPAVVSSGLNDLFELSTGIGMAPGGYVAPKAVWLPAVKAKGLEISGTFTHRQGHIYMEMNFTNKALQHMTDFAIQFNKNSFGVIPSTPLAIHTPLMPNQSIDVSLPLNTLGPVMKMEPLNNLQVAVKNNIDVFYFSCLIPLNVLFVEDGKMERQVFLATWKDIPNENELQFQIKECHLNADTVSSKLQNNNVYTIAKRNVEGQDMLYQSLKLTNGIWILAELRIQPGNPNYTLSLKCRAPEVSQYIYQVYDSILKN
Y561A: the “effect of a mutation on the interaction” value is given as “disrupting interaction”.

The record behind these values is IntAct's records for PubMed 20947020.
